In experiment [1] the target is AceE fragment 5, stalled nascent chain (E. coli). As to the kind of experiment: optical tweezers with two-color confocal single-molecule fluorescence; single stalled ribosome-nascent chain complexes tethered between beads by DNA handles; 100 nM labelled TF and 100 nM labelled DnaK in solution, with or without 17 nM DnaJ and 10 nM GrpE; TICO buffer, 1 mM ATP and regeneration system.

Experiment [2] has as its target AceE fragment 2, stalled nascent chain (E. coli) (UniProt P0AFG8). Described as above.

The results in this text go back to publication PMC12065913.

A value given as a limit tells only on which side of the number the result lay.

Chain of UniProt P0AFG8 (P0AFG8 1-200): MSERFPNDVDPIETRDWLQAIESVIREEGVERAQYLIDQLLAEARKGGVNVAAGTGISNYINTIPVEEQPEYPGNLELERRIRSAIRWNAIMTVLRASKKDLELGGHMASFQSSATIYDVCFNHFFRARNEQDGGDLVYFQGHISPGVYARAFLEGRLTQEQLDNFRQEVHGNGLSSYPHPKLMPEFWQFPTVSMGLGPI

In experiment [1], “DnaK-290C, ATTO532 labelled (from UniProt P0A6Y8 1-638) (natural protein)” displayed a residence time (nascent chains folded by more than one-third) above 10 s and a residence time (nascent chains less than one-third folded) below 5 s. Regarding “TF-99C, ATTO647N labelled (from UniProt P0A850 1-432) (natural protein)”, the binding time (more folded nascent chains) in experiment [2] was above 50 s.
